The labels stand for the following.
B1: CPEB3 Ribozyme (parent)
chain: UAACAGGGGGCCACAGCAGAAGCGUUCACGUCGCAGCCCCUGUCAGAUUCUGGUGAAUCUGCGAAUUCUGCUGUAUAUCUC

Among the data in the RNAGym collection of RNA variant scans (doi:10.1093/nar/gkz1192) are self-cleavage values, retold here.

The variants in this data set derive from B1. The data set can be described thus: self-cleavage, relative activity (ratio to wild type); higher = more cleavage; in vitro, sequencing. The essentials:
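After error-prone PCR and barcoding, CPEB3 ribozyme mutant libraries were transcribed with T7 RNA polymerase at 37°C for 5 hours, then given 15 min with DNase I before an EDTA stop, and they cleaved during both steps. Reverse transcription with template switching preceded Illumina sequencing. Relative activity divides a variant's cleaved/total read fraction by the unmutated ribozyme's. At least 5 reads were required per variant, and three batches were averaged.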
UAACAGGGGGCCGCAGCAGAAGCAUUCACGUCGCAGCCCCUGUCAGAUUCUGGUGAAUCUGCGAAUUCUGCUGUAUAUCUC: the self-cleavage came out at 0.27.

In the case of UAACAGGGGGCCGCAGCAGAAGCGAUCACGUCGCAGCCCCUGUCAGAUUCUGGUGAAUCUGCGAAUUCUGCUGUAUAUCUC, the self-cleavage came out at 0.29. Then UAACAGGGGGCCGCAGCAGAAGCGCUCACGUCGCAGCCCCUGUCAGAUUCUGGUGAAUCUGCGAAUUCUGCUGUAUAUCUC, with 0.36; and UAACAGGGGGCCGCAGCAGAAGCGUUCACAUCGCAGCCCCUGUCAGAUUCUGGUGAAUCUGCGAAUUCUGCUGUAUAUCUC, with 0.44. As for UAACAGGGGGCCGCAGCAGAAGCGUUCACUUCGCAGCCCCUGUCAGAUUCUGGUGAAUCUGCGAAUUCUGCUGUAUAUCUC, the figure is 0.18. As for UAACAGGGGGCCGCAGCAGAAGCGUUCACCUCGCAGCCCCUGUCAGAUUCUGGUGAAUCUGCGAAUUCUGCUGUAUAUCUC, the figure is 0.16. With UAACAGGGGGCCGCAGCAGAAGCGUUCACGCCGCAGCCCCUGUCAGAUUCUGGUGAAUCUGCGAAUUCUGCUGUAUAUCUC, the self-cleavage amounted to 0.45. Then UAACAGGGGGCCGCAGCAGAAGCGUUCACGGCGCAGCCCCUGUCAGAUUCUGGUGAAUCUGCGAAUUCUGCUGUAUAUCUC, with 0.51. As for UAACAGGGGGCCGCAGCAGAAGCGUUCACGACGCAGCCCCUGUCAGAUUCUGGUGAAUCUGCGAAUUCUGCUGUAUAUCUC, the figure is 0.5; as for UAACAGGGGGCCGCAGCAGAAGCGUUCACGUCGCAGCCCCUGUCAGAUCCUGGUGAAUCUGCGAAUUCUGCUGUAUAUCUC, 0.25; as for UAACAGGGGGCCGCAGCAGAAGCGUUCACGUCGCAGCCCCUGUCAGAUACUGGUGAAUCUGCGAAUUCUGCUGUAUAUCUC, 0.41. On to UAACAGGGGGCCGCAGCAGAAGCGUUCACGUCGCAGCCCCUGUCAGAAUCUGGUGAAUCUGCGAAUUCUGCUGUAUAUCUC, for which the self-cleavage worked out at 0.31. Regarding UAACAGGGGGCCGCAGCAGAAGCGUUCACGUCGCAGCCCCUGUCAGACUCUGGUGAAUCUGCGAAUUCUGCUGUAUAUCUC, the self-cleavage was found to be 0.44. Then UAACAGGGGGCCGCAGCAGAAGCGUUCACGUCGCAGCCCCUGUCAAAUUCUGGUGAAUCUGCGAAUUCUGCUGUAUAUCUC, with 0.21.

As to UAACAGGGGGCCGCAGCAGAACCGUUCACGUCGCAGCCCCUGUCAGAUUCUGGUGAAUCUGCGAAUUCUGCUGUAUAUCUC, the self-cleavage is 0.12. As to UAACAGGGGGCCGCAGCAGAAACGUUCACGUCGCAGCCCCUGUCAGAUUCUGGUGAAUCUGCGAAUUCUGCUGUAUAUCUC, the self-cleavage is 0.19. In the case of UAACAGGGGGCCGCAGCAGAAGCGUUCACGUCGCAGCCCCUGGCAGAUUCUGGUGAAUCUGCGAAUUCUGCUGUAUAUCUC, the self-cleavage was 0.27. With UAACAGGGGGCCGCAGCAGAAGCGUUCACGUCGCAGCCCCUGCCAGAUUCUGGUGAAUCUGCGAAUUCUGCUGUAUAUCUC, the self-cleavage amounted to 0.49. Take UAACAGGGGGCCGCAGCAGAAGCGUUCACGUCGCAGCCCCUGACAGAUUCUGGUGAAUCUGCGAAUUCUGCUGUAUAUCUC: the self-cleavage amounted to 0.93.

Consider UAACAGGGGGCCGCAGCAGAAGCGUUCACGUCGCAGCCCCUGUCAGAUUCUGGUGAAUCUGCAAAUUCUGCUGUAUAUCUC, for which the self-cleavage was determined as 0.68. As for UAACAGGGGGCCGCAGCAGAAGCGUUCACGUCGCAGCCCCUGUCAGAUUCUGGUGAAUCUGCCAAUUCUGCUGUAUAUCUC, the figure is 0.81; as for UAACAGGGGGCCGCAGCAGAAGCGUUCACGUCGCAGCCCCUGUCAGAUUCUGGUGAAUCUGCGAAUUCUGCUGUAUAUCUA, 1.23. Then UAACAGGGGGCCGCAGCAGAAGCGUUCACGUCGCAGCCCCUGUCAGAUUCUGGUGAAUCUGCGAAUUCUGAUGUAUAUCUC, with 0.25; and UAACAGGGGGCCGCAGCAGAAGCGUUCACGUCGCAGCCCCUGUCAGAUUCUGGUGAAUCUGCGAAUUCUGGUGUAUAUCUC, with 0.12; and UAACAGGGGGCCGCAGCAGAAGCGUUCACGUCGCAGCCCCUGUCAGAUUCUGGUGAAUCUGCGAAUUCUGUUGUAUAUCUC, with 0.39.

As for UAACAGGGGGCCGCAGCAGAAGCGUUCACGUCGCAGCCCCUGUCAGAUUCUGGUGAAUUUGCGAAUUCUGCUGUAUAUCUC, the self-cleavage worked out at 0.8.

On to UAACAGGGGGCCGCAGCAGAAGCGUUCACGUCGCAGCCCCUGUCAGAUUCUGGUGAAUGUGCGAAUUCUGCUGUAUAUCUC, for which the self-cleavage came out at 0.24. As to UAACAGGGGGCCGCAACAGAAGCGUUCACGUCGCAGCCCCUGUCAGAUUCUGGUGAAUCUGCGAAUUCUGCUGUAUAUCUC, the self-cleavage turned out to be 0.24. UAACAGGGGGCCGCAGCAGAAGCGUUCACGUCGCAGCCCCUGUCAGAUUCUGGUGAAUCUGAGAAUUCUGCUGUAUAUCUC: the self-cleavage amounted to 0.18. Then UAACAGGGGGCCGCAGCAGAAGCGUUCACGUCGCAGCCCCUGUCAGAUUCUGGUGAAUCUGUGAAUUCUGCUGUAUAUCUC, with 0.23; and UAACAGGGGGCCGCAGCAGAAGCGUUCACGUCGCAGCCCCUGUCAGAUUCUGGUAAAUCUGCGAAUUCUGCUGUAUAUCUC, with 0.79. In the case of UAACAGGGGGCCGCAGCAGAAGCGUUCACGUCGCAGCCCCUGUCAGAUUCUGGUCAAUCUGCGAAUUCUGCUGUAUAUCUC, the self-cleavage came out at 0.23. Then UAACAGGGGGCCGCAGCAGAAGCGUUCACGUCGCAGCCCCUGUCAGAUUCCGGUGAAUCUGCGAAUUCUGCUGUAUAUCUC, with 0.85; and UAACAGGGGGCCGCAGCAGAAGCGUUCACGUCGCAGCCCCUGUCAGAUUCAGGUGAAUCUGCGAAUUCUGCUGUAUAUCUC, with 0.91; and UAACAGGGGGCCGCAGCAGAAGCGUUCACGUCGCAGCCCCUGUCAGAUUCGGGUGAAUCUGCGAAUUCUGCUGUAUAUCUC, with 0.84. For UAACAGGGGGCCGCAGCAGAAGCGUUCACGUCUCAGCCCCUGUCAGAUUCUGGUGAAUCUGCGAAUUCUGCUGUAUAUCUC, the self-cleavage worked out at 0.24.

As to UAACAGGGGGCCGCAGCAGAAGCGUUCACGUCACAGCCCCUGUCAGAUUCUGGUGAAUCUGCGAAUUCUGCUGUAUAUCUC, the self-cleavage was found to be 0.21.

Consider UAACAGGGGGCCGCAGCAGAAGCGUUCACGUCCCAGCCCCUGUCAGAUUCUGGUGAAUCUGCGAAUUCUGCUGUAUAUCUC, for which the self-cleavage came out at 0.17. Then UAACAGGGGGCCGCAGCAGAAGCGUUCACGUCGCAGCCCCUGUCAGAUUCUGGUGAAUCUGCGAAUUCUGCUAUAUAUCUC, with 1.27. On to UAACAGGGGGCCGCAGCAGAAGCGUUCACGUCGCAGCCCCUGUCAGAUUCUGGUGAAUCUGCGAAUUCUGCUCUAUAUCUC, for which the self-cleavage turned out to be 1.12. As for UAACAGGGGGCCGCAGCAGAAGCGUUCACGUCGCAGCCCCUGUCAGAUUCUGAUGAAUCUGCGAAUUCUGCUGUAUAUCUC, the figure is 0.92.

For UAACAGGGGGCCGCAGCAGAAGCGUUCACGUCGCAGCCCCUGUCAGAUUCUGUUGAAUCUGCGAAUUCUGCUGUAUAUCUC, the self-cleavage came out at 1.15.

In the case of UAACAGGGGGCCGCAGCAGAAGCGUGCACGUCGCAGCCCCUGUCAGAUUCUGGUGAAUCUGCGAAUUCUGCUGUAUAUCUC, the self-cleavage was found to be 0.21. For the variant UAACAGGGGGCCGCAGCAGAAGCGUCCACGUCGCAGCCCCUGUCAGAUUCUGGUGAAUCUGCGAAUUCUGCUGUAUAUCUC, the self-cleavage worked out at 0.38.

For UAACAGGGGGCCGCAGCAGAAGCGUACACGUCGCAGCCCCUGUCAGAUUCUGGUGAAUCUGCGAAUUCUGCUGUAUAUCUC, the self-cleavage turned out to be 0.85. Regarding UAACAGGGGGCCGCAGCAGAAGCGUUCACGUCGCAGCCCCUGUCAGAUUCUGGUGAAUCUGCGAAUUCUGCUGUAUAUUUC, the self-cleavage came out at 1.14.

For the variant UAACAGGGGGCCGCAGCAGAAGCGUUCACGUCGCAGCCCCUGUCAGAUUUUGGUGAAUCUGCGAAUUCUGCUGUAUAUCUC, the self-cleavage came to 0.91. For UAACAGGGGGCCGCAGCAGAAGCGUUCACGUCGCAGCCCCUGUCAGAUUCUGGUGAAUCAGCGAAUUCUGCUGUAUAUCUC, the self-cleavage amounted to 0.43. As for UAACAGGGGGCCGCAGCAGAAGCGUUCACGUCGCAGCCCCUGUCAGAUUCUGGUGAAUCGGCGAAUUCUGCUGUAUAUCUC, the self-cleavage was determined as 0.32. Then UAACAGGGGGCCGCAGCAGAAGCGUUCACGUCGCAGCCCCUGUCAGAUUCUGGUGAAUCCGCGAAUUCUGCUGUAUAUCUC, with 0.38; and UAACAGGGGGCCGCAGCAGAAGCGUUCACGUCGCAGCCCCCGUCAGAUUCUGGUGAAUCUGCGAAUUCUGCUGUAUAUCUC, with 0.79; and UAACAGGGGGCCGCAGCAGAAGCGUUCACGUCGCAGCCCCAGUCAGAUUCUGGUGAAUCUGCGAAUUCUGCUGUAUAUCUC, with 0.27.

Take UAACAGGGGGCCGCAGCAGAAGCGUUCACGUCGCAGCCCCGGUCAGAUUCUGGUGAAUCUGCGAAUUCUGCUGUAUAUCUC: the self-cleavage is 0.37.

As to UAACAGGGGGCCGCAGCAGAAGCGUUCACGUCGCAGCCCCUGUCAGAUUCUGGUGAAUCUGCGAAUUUUGCUGUAUAUCUC, the self-cleavage worked out at 0.66. As for UAACAGGGGGCCGCAGCAGAAGCGUUCACGUCGCAGCCCCUGUCAGAUUCUGGUGAAUCUGCGAAAUCUGCUGUAUAUCUC, the figure is 0.45; as for UAACAGGGGGCCGCAGCAGAAGCGUUCACGUCGCAGCCCCUGUCAGAUUCUGGUGAAUCUGCGAACUCUGCUGUAUAUCUC, 0.35. For the variant UAACAGGGGGCCGCAGCAGAAGCGUUCACGUCGCAGCCCCUGUCAGAUUCUGGUGAAUCUGCGAAGUCUGCUGUAUAUCUC, the self-cleavage came out at 0.31.

For UAACAGGGGGCCGCAGCAGAAGCGUUCACGUCGCAGCCCCUGUCAGAUUCUGGAGAAUCUGCGAAUUCUGCUGUAUAUCUC, the self-cleavage was 1.07. UAACAGGGGGCCGCAGCAGAAGCGUUCACGUCGCAGCCCCUGUCAGAUUCUGGCGAAUCUGCGAAUUCUGCUGUAUAUCUC: the self-cleavage was 0.92. Then UAACAGGGGGCCGCAGCAGAAGCGUUCACGUCGCAGCCCCUGUCAGAUUCUGGGGAAUCUGCGAAUUCUGCUGUAUAUCUC, with 0.76; and UAACAGGGGGCCGCAGCAGAAGCGUUCACGUCGCAGCCCCUGUCAGAUUCUGGUGAACCUGCGAAUUCUGCUGUAUAUCUC, with 0.46.

With UAACAGGGGGCCGCAGCAGAAGCGUUCACGUCGCAGCCCCUGUCAGAUUCUGGUGAAGCUGCGAAUUCUGCUGUAUAUCUC, the self-cleavage came to 0.2.

On to UAACAGGGGGCCGCAGCAGAAGCGUUCACGUCGCAGCCCCUGUCAGAUUCUGGUGAAUCUGCGAAUUCUACUGUAUAUCUC, for which the self-cleavage is 0.26. Regarding UAACAGGGGGCCGCAGCAGAAGCGUUCACGUCGCAGCCCCUGUCAGAUUCUGGUGAAUCUGCGAAUUCUCCUGUAUAUCUC, the self-cleavage worked out at 0.45.

Take UAACAGGGGGCCGCAGCAGAAGCGUUCACGUCGCAACCCCUGUCAGAUUCUGGUGAAUCUGCGAAUUCUGCUGUAUAUCUC: the self-cleavage was 0.35. As for UAACAGGGGGCCGCAGCAGAAGCGUUCACGUCGCAUCCCCUGUCAGAUUCUGGUGAAUCUGCGAAUUCUGCUGUAUAUCUC, the figure is 0.2. Consider UAACAGGGGGCCGCAGCAGAAGCGUUCACGUCGCAGCCCCUGUCAGAUUCUUGUGAAUCUGCGAAUUCUGCUGUAUAUCUC, for which the self-cleavage stood at 1.14. Consider UAACAGGGGGCCGCAGCAGAAGCGUUCACGUCGCAGCCCCUGUCAGAUUCUAGUGAAUCUGCGAAUUCUGCUGUAUAUCUC, for which the self-cleavage was 1.04.
